Assay results reported in patent US20240327489A1.

Key:
[1] = target: putative Btnl2 receptor on activated CD4+ T cells; assay: flow cytometry, Fc-fusion staining of activated mouse CD4+ T cells at 72 hours
[2] = target: putative Btnl2 receptor on activated CD4+ T cells; assay: cell-based or functional assay

decrease in binding with CD28 co-stimulation (α-CD3/α-CD28 against α-CD3 alone) [1]: 50%
cytokine production of activated CD4+ T cells after 72 hours of culture [2]: > 40%
Substance: mouse Btnl2-Fc (from UniProt O70355 24-454) (Fc fusion)
